In test [1] the target is T1, human IL-36R (human) (UniProt Q9HB29).
T1 sequence (looked up): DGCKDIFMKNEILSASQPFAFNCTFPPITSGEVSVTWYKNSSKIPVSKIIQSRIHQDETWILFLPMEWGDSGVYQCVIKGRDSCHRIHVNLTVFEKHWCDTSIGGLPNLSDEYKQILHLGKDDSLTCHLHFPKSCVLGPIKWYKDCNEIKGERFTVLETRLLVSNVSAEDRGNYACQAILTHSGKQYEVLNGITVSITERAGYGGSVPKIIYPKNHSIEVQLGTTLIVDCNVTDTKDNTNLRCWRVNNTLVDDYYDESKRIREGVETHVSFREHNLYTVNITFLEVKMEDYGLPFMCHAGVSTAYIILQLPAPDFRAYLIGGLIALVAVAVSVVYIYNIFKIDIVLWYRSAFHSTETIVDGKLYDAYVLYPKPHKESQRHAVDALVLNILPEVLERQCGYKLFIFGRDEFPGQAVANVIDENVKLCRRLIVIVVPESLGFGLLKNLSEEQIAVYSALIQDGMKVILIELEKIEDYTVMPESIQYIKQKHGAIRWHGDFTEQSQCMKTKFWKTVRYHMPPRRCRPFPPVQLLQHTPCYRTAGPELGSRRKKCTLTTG
Briefly: cell-based or functional assay.

In test [2] the target is T1, human IL-36R (human). The test can be described thus: flow cytometry on cells, hybridoma supernatant. In general terms: In flow cytometry, cells or beads pass a laser one at a time.
Another test addresses human IL1R1 (human) (UniProt P14778). Briefly: flow cytometry on cells, hybridoma supernatant.
Another test concerns the target monkey IL-36R (monkey). The test can be described thus: flow cytometry on cells, hybridoma supernatant.
Test [3] concerns the target T2, human IL-36R (antigen of the OD450 binding screen of Table 1) (human) (UniProt Q9HB29).
T2 sequence (looked up): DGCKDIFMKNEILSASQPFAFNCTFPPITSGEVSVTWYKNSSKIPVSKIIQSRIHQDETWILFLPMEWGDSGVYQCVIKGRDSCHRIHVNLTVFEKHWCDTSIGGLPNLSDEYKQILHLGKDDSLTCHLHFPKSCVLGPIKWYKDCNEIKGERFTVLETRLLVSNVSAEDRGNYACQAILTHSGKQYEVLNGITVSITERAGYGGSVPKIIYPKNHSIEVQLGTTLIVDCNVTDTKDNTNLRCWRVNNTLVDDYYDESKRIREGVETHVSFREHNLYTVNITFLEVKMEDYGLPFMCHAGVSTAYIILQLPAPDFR
The test can be described thus: OD450 binding screen of hybridoma supernatant, antigen not named.

Chain of human IL1R1 (human) (P14778 18-569): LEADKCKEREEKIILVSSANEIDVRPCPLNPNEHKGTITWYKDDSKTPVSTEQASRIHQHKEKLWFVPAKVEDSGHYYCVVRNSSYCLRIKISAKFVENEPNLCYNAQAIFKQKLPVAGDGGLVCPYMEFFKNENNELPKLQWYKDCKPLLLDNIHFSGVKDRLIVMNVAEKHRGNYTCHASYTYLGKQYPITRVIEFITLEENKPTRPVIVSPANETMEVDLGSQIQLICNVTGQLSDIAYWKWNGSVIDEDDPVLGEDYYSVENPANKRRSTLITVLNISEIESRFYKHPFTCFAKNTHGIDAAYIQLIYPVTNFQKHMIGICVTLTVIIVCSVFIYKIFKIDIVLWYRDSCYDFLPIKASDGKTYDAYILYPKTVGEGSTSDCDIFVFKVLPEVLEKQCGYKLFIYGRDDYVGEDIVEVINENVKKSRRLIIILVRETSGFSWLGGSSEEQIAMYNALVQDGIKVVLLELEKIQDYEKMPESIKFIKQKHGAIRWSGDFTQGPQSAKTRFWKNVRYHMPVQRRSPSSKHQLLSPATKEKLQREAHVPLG

B1: 111(1)-E5 (antibody, part only; not given: light chain, V domains shown, part only)
VH: QVQLQQTGSVLVRPGTSVKLSCKASGYTFTSSWMHWAKQRPGQGLEWIGEIHPNSAKTNYNEKFKGKATLTVDTFSSTAYVDLSSLASEDSAVYYCARVDYGKPWFAYWGQGTLVTVSA
In the case of B1, in the test with human IL-36R (human) [1], the IL-6 ratio in blockage of human IL36β functional activity (hybridoma supernatant/positive control) is 0.07%, the IL-8 ratio in blockage of human IL36α functional activity (hybridoma supernatant/positive control) is -4.02%, the IL-8 ratio in blockage of human IL36β functional activity (hybridoma supernatant/positive control) was -4.62% and the IL-8 ratio in blockage of human IL36γ functional activity (hybridoma supernatant/positive control) was -3.86%. Moreover, in the test with human IL-36R (human) [2], the MFI ratio (hybridoma supernatant/positive control) came out at 81.6%. Also, the MFI ratio (hybridoma supernatant/negative control) with human IL1R1 (human) was found to be 118%. Besides, in the test with monkey IL-36R (monkey), the MFI ratio (hybridoma supernatant/positive control) was found to be 105%. This molecule also showed a Binding activity OD450 value in test [3] of 2.16 OD450.

These data come from patent publication EP4289863A9.
